Values belong to the molecule of their own block, whether it stands above or below them. Primed or numbered codes have the meaning given here. Ends that are not written are not given here. FITC′ = fluorescein isothiocyanate label
How the values were obtained:
[1] = biological target: Fluorescein-SRC1–1 Coactivator Peptide 3; test: fluorescence polarisation; TR+T3 or the complex TR+T3:PDIA1 titrated from 1 to 7,000 nM into 50 nM fluorescein-SRC1 peptide; buffer A or B; triplicate
[2] = biological target: hTRα full length labelled with FITC (human) (UniProt P10827); test: fluorescence polarisation; PDIA1 titrated from 0.012 to 25 μM into 50 nM TR-FITC, without T3; 20 mM sodium phosphate pH 7.4, 150 mM NaCl, 5 mM MgCl2, 1 mM DTT; 20°C; Hill fit
[3] = biological target: hTRβΔAB (amino acids 102–461) labelled with FITC (human) (UniProt P10828); test: as above
[4] = biological target: hTRα full length, recombinant (human) (UniProt P10827); test: SEC; analytical gel filtration, Superdex 200 HR 10/300, buffer A or B with 150 mM NaCl and 2 mM DTT, 0.5 mL/min; hydrodynamic radii from calibration standards; proteins alone and mixed
[5] = biological target: hTRβΔAB (amino acids 102–461), recombinant (human) (UniProt P10828); test: as above
[6] = biological target: hTRα full length labelled with FITC (human) (UniProt P10827); test: fluorescence polarisation; PDIA1 titrated from 0.012 to 25 μM into 50 nM TR-FITC pre-incubated with 3 times molar excess of T3; 20 mM sodium phosphate pH 7.4, 150 mM NaCl, 5 mM MgCl2, 1 mM DTT; 20°C; Hill fit
[7] = biological target: hTRβΔAB (amino acids 102–461) labelled with FITC (human) (UniProt P10828); test: as above
[8] = biological target: hTRα full length labelled with FITC (human) (UniProt P10827); test: fluorescence polarisation; reduced PDIA1 (pre-incubated with 0.5 mM DTT for 30 min) titrated from 0.012 to 25 μM into 50 nM TR-FITC; 20 mM sodium phosphate pH 7.4, 150 mM NaCl, 5 mM MgCl2, no DTT in the buffer; with and without T3 by the methods, not given for the values
[9] = biological target: hTRβΔAB (amino acids 102–461) labelled with FITC (human) (UniProt P10828); test: as above
[10] = biological target: hTRα full length labelled with FITC (human) (UniProt P10827); test: fluorescence polarisation; oxidised PDIA1 (pre-incubated with 0.5 mM H2O2 for 30 min) titrated from 0.012 to 25 μM into 50 nM TR-FITC; 20 mM sodium phosphate pH 7.4, 150 mM NaCl, 5 mM MgCl2, no DTT in the buffer; with and without T3 by the methods, not given for the values
[11] = biological target: hTRβΔAB (amino acids 102–461) labelled with FITC (human) (UniProt P10828); test: as above
[12] = biological target: T1, hTRβΔAB (amino acids 102–461), recombinant (human, UniProt P10828 102-461); test: fluorescence polarisation; TR+T3 or the complex TR+T3:PDIA1 titrated from 1 to 7,000 nM into 50 nM fluorescein-SRC1 peptide; buffer A or B; triplicate; details: both partners purified
T1 construct: numbers fit TRβ1 (461 aa); Unlabelled protein, used in SEC, DLS and, pre-incubated with T3, in the SRC1 anisotropy; also called TRβDL; source: E. coli BL21(DE3), purified (Talon resin, SEC Superdex 75)
T1 sequence (looked up): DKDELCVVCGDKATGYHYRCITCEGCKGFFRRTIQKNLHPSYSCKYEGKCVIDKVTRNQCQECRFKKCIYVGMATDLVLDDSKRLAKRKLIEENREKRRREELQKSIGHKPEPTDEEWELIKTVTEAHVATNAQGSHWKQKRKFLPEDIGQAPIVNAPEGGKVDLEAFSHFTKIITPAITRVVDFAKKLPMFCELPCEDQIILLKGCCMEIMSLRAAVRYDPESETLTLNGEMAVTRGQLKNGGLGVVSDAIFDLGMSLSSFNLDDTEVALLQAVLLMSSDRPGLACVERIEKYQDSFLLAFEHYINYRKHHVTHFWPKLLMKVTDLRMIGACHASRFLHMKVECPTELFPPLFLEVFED

Kd [1]: 290 nM
Molecule: hTRα full length, recombinant (from UniProt P10827-2 1-410) (receptor)

Kd [12]: 680 ± 60 nM
B1: Fluorescein-SRC1–1 Coactivator Peptide 3 (peptide)
peptide: {FITC′}-KYSQTSHKLVQLLTTTAEQQL
notes: also called SRC1 peptide; CoA peptide; source: bought: Life-technologies

Further lines, the molecule ahead of its results:

Molecule: TRβ+T3:PDIA1 complex (from UniProt P10828 102-461; P07237 18-508)
Kd [1]: 390 nM

Molecule: hPDIA1 full length, recombinant (from UniProt P07237 18-508) (enzyme)
Kd [2]: 2050 nM
Kd [3]: 2710 nM
stoichiometry N [4]: 1
stoichiometry N [5]: 1
Kd [6]: 1970 nM
Kd [7]: 2810 nM
Kd [8]: 10700 nM
Kd [9]: 4540 nM
Kd [10]: 7900 nM
Kd [11]: > 102000 nM

Molecule: TRα+T3:PDIA1 complex (from UniProt P10827-2 1-410; P07237 18-508)
Kd [1]: 700 nM

Source: paper PMC6331412, “Protein Disulfide Isomerase Modulates the Activation of Thyroid Hormone Receptors” (Frontiers in Endocrinology, 2018)
